In assay [1] the target is T1, SARS-CoV-2 spike protein (wild-type) on VSV pseudovirus (SARS-CoV-2), P0DTC2.
In assay [2] the target is T1, SARS-CoV-2 spike protein (wild-type) on …. This is another data set of the same source.
Assay [3] shares this target. This is another data set of the same source.
Assay [4] has the same target. This is another data set of the same source.
For assay [5] the target is unchanged. This is another data set of the same source.
The target is the same in assay [6]. In words: cell-based or functional assay.
The target is the same in assay [7]. This is another data set of the same source.
The target is the same in assay [8]. The source holds these as a separate data set.

Numbering of substitutions follows the chain as printed. Like-named read-outs stand apart in the source and are kept apart here.

B1: P043.A.00095.D06 (protein sample ID 470) (antibody, V domains shown)
VH: QEQLEESGGDLVKPEGSLTLTCTASGFSFSSNYWICWVRQAPGKGLEWIGCIYIGSGDTYYASWAKGRFTISKTSSTTVTLQMTSLTAADTATYFCARSYTPGSYYNMNLWGPGTLVTVSS
VL: DVVMTQTPSSVSAAVGGTVTINCQASQQISNELSWYQQKSGQPPKLLIYDASDLASGVPSRFKGSGSGTEFTLTISDLESADAATYYCQSTGGASSDGNAFGGGTEVVVK
On to B1, for which, in assay [1], the IC50 (pVNT, GFP-positive infected cells) came to 0.28 µg/ml and the IC90 (pVNT, GFP-positive infected cells) was 2.28 µg/ml. This molecule had an IC50, pVNT (luciferase RLU, VERO 76 cells), RiboMab in HEK 293T/17 supernatant in assay [2] of 189 ng/mL. In assay [3], the IC50 (read off the curve), Mouse #1 came out at 0.05 µg/mL and the IC50 (read off the curve), Mouse #2 is 0.05 µg/mL. In assay [4], this molecule yielded an IC50, pVNT (luciferase RLU), RiboMab in mouse serum, biological replicate 1 of 53.6 ng/mL; an IC50, pVNT (luciferase RLU), RiboMab in mouse serum, biological replicate 2 of 51.8 ng/mL; an IC90, pVNT (luciferase RLU), RiboMab in mouse serum, biological replicate 1 of 310 ng/mL; an IC90, pVNT (luciferase RLU), RiboMab in mouse serum, biological replicate 2 of 284 ng/mL. This molecule also displayed an IC50 (read off the curve) in assay [5] of 0.2 µg/mL. Moreover, in assay [6], the IC90, pVNT (luciferase), RiboMab 470 in HEK 293T/17 supernatant came out at 449 ng/mL and the IC90, pVNT (luciferase), RiboMab 470 in mouse serum was 297 ng/mL.

B2: P043.A.00092.C12 (antibody)
heavy chain: QEELKETGGGLVQPGGSLTLSCKASGFDFSSYYMSWVRQAPGKGLEWIGVIYASKGSTDYASWVNGRFTISSDNAQNTVDLQMNSLTAADTATYYCARSKRFYTYGYAGYAYAHYYYGMDLWGPGTLVTVSS
light chain: AIQMTQSPSSLAASVGDTVTITCKASEDIGYGLNWYQQKLGIAPKLLIYGADTLESGVPSRFSGSGSETDYTLTISSVQAEDAGIYYCQQGYSTPLTFGAGTKVEIK
In assay [1], B2 returned an IC50 (pVNT, GFP-positive infected cells) of 0.31 µg/ml and an IC90 (pVNT, GFP-positive infected cells) of 3.79 µg/ml.

B3: P043.A.00017.E04 (antibody)
heavy chain: QSVEESGGRLVTPGTPLTLTCTVSGFSLNNYAMNWVRQAPGKGLEWIGIISSSGNTYYANWAKGRFTISKTSTTVDLKITSPTTEDTATYFCARDSYPGYSPYYGMDPWGPGTLVTVSS
light chain: B2 light chain with G30A, A43T, D52N, D70H, S93N, L96P
In assay [1], B3 returned an IC50 (pVNT, GFP-positive infected cells) of 1.19 µg/ml and an IC90 (pVNT, GFP-positive infected cells) of 5.35 µg/ml.

B4: P043.A.00023.E05 (antibody)
heavy chain: QSLEESGGRLVTPGTPLTLTCTVSGFSLSSYAMSWVRQAPGKGLEWIGIISSSGSTYYASWAKGRFTISKTSTTVDLKITSPTTEDTATYFCARDASSRGYYYYYGMDPWGPGTLVTVSS
light chain: B2 light chain with D52N
In the case of B4, in assay [1], the IC50 (pVNT, GFP-positive infected cells) amounted to 3.75 µg/ml and the IC90 (pVNT, GFP-positive infected cells) was 16.6 µg/ml.

B5: P043.A.00097.B02 (antibody)
heavy chain: QELVESGGGLVQAGESLKLSCKASGIDFSSYGISWVRQAPGKGLEWIAYIYPGFGITNYANSVKGRFTISSDNAQNTVFLQMTSLTASDTATYFCTRAYASSSGYYIHYFNLWGPGTLVTVSS
light chain: B2 light chain with D52N, G91A
For the molecule B5, in assay [1], the IC50 (pVNT, GFP-positive infected cells) came out at 7.84 µg/ml and the IC90 (pVNT, GFP-positive infected cells) came to 24.2 µg/ml.

B6: P043.A.00024.C11 (protein sample ID 451) (antibody, V domains shown)
VH: B4 heavy chain with L3V, S55T, R65P, D95G, A96G, S97A, S98G, R99Y, Y102A, Y103H
VL: B2 light chain with D52N
In assay [1], B6 displayed an IC50 (pVNT, GFP-positive infected cells) of 4.74 µg/ml and an IC90 (pVNT, GFP-positive infected cells) of 20.6 µg/ml. In assay [2], the IC50, pVNT (luciferase RLU, VERO 76 cells), RiboMab in HEK 293T/17 supernatant is 406 ng/mL and the IC90, pVNT (luciferase RLU, VERO 76 cells), RiboMab in HEK 293T/17 supernatant stood at 3810 ng/mL.

B7: P043.A.00047.H08 (protein sample ID 447) (antibody, V domains shown)
VH: QSLEESGGDLVKPGASLTLTCTASGFSFSSDGMCWVRQAPGKGLEWIACIAAGSSGSTYYATWAQGRFTISKSSSTTVTLQMTSLTAADTATYFCAGEDYTGNNYYALWGPGTLVTVSS
VL: AIDMTQTPSPVSAVVGDTVTINCQASENIYSFLAWYQQKPGQPPKLLIYFASKLASGVPSRFKGSGSGTQFTLTISDVHSDDAAIYYCQQTGTYSDADNTFGGGTEVVVK
Consider B7, for which, in assay [1], the IC50 (pVNT, GFP-positive infected cells) worked out at 3.9 µg/ml and the IC90 (pVNT, GFP-positive infected cells) was found to be 18.2 µg/ml. Besides, in assay [2], the IC50, pVNT (luciferase RLU, VERO 76 cells), RiboMab in HEK 293T/17 supernatant was 169 ng/mL and the IC90, pVNT (luciferase RLU, VERO 76 cells), RiboMab in HEK 293T/17 supernatant was 7240 ng/mL. Also, in assay [4], the IC50, pVNT (luciferase RLU), RiboMab in mouse serum, biological replicate 1 was 740 ng/mL; the IC50, pVNT (luciferase RLU), RiboMab in mouse serum, biological replicate 2 turned out to be 424 ng/mL; the IC90, pVNT (luciferase RLU), RiboMab in mouse serum, biological replicate 1 was determined as 6390 ng/mL; the IC90, pVNT (luciferase RLU), RiboMab in mouse serum, biological replicate 2 was 4530 ng/mL.

B8: 465: LC of anti-S1 antibody with a C-terminal fusion of a scFv of P043.A.00017.E07 (bispecific antibody)
heavy: QMQLVQSGTEVKKPGESLKISCKGSGYGFITYWIGWVRQMPGKGLEWMGIIYPGDSETRYSPSFQGQVTISADKSINTAYLQWSSLKASDTAIYYCAGGSGISTPMDVWGQGTTVTVASTKGPSVFPLAPSSKSTSGGTAALGCLVKDYFPEPVTVSWNSGALTSGVHTFPAVLQSSGLYSLSSVVTVPSSSLGTQTYICNVNHKPSNTKVDKRVEPKSCDKTHTCPPCPAPEAAGGPSVFLFPPKPKDTLMISRTPEVTCVVVDVSHEDPEVKFNWYVDGVEVHNAKTKPREEQYNSTYRVVSVLTVLHQDWLNGKEYKCKVSNKALPAPIEKTISKAKGQPREPQVYTLPPSREEMTKNQVSLTCLVKGFYPSDIAVEWESNGQPENNYKTTPPVLDSDGSFFLYSKLTVDKSRWQQGNVFSCSVLHEALHSHYTQKSLSLSPGK
light: not shown
For the molecule B8, in assay [7], the IC50 (pVNT, infected cells/16 fields) is 0.21 ng/ml and the IC90 (pVNT, infected cells/16 fields) is 1.05 ng/ml.

B9: 467: LC of anti-S1 antibody with a C-terminal fusion of a scFv of P043.A.00024.C11 (bispecific antibody)
heavy: B8 heavy
light: not shown
B9: in assay [7], the IC50 (pVNT, infected cells/16 fields) was 0.46 ng/ml and the IC90 (pVNT, infected cells/16 fields) came to 1.42 ng/ml. In assay [8], this molecule showed an IC50 (pVNT, infected cells/16 fields) of 0.4 µg/ml and an IC90 (pVNT, infected cells/16 fields) of 1.19 µg/ml.
